{"source": "patent US7816543B2", "about": "“Leptomycin derivatives” (Sanofi-Aventis, priority 2006, dated 2010)", "key": {"[1]": {"system": "COLO 205 (CanAg antigen-positive) cancer cells", "assay": "Cytotoxicity evaluation on COLO 205 cells", "assay_type": "cell-based, human", "conditions": "COLO 205 (CanAg antigen-positive) cells, FIG. 1", "source_text": "(§1) The human cancer cell lines HL60, Namalwa, A-375, COLO205 and Ramos were obtained from the American Type Culture Collection (ATCC). Kara is a murine tumor cell line that has been stably transfected with the human CD33 antigen."}, "[2]": {"system": "A375 cells", "assay": "Cytotoxicity evaluation on A375 cells", "assay_type": "cell-based, human", "conditions": "FIG. 1", "source_text": "as §1"}}, "data": [{"molecule": "huC242-SSNPB-leptomycin of example 6 (conjugate, chains of the INN, looked up, SSNPB-leptomycin conjugate) VH: QVQLVQSGAEVKKPGETVKISCKASDYTFTYYGMNWVKQAPGQGLKWMGWIDTTTGEPTYAQKFQGRIAFSLETSASTAYLQIKSLKSEDTATYFCARRGPYNWYFDVWGQGTTVTVSS VL: DIVMTQSPLSVPVTPGEPVSISCRSSKSLLHSNGNTYLYWFLQRPGQSPQLLIYRMSNLVSGVPDRFSGSGSGTAFTLRISRVEAEDVGVYYCLQHLEYPFTFGPGTKLELK", "values": [{"measurement": "IC50", "setting": "[1]", "result": 0.13, "unit": "nM"}, {"measurement": "IC50", "setting": "[2]", "result": "> 5", "unit": "nM"}]}]}
